Test results: patent US20260327578A1, “TRANSGLUTAMINASES AND USES THEREOF” (CURIE CO. INC., priority 2023, published 2026)

Experiments:
[1] = test system: N,N-dimethylcasein; assay: Productivity: total product formed after 24 hours (protein functionalization assay); type: biochemical; parameters: key: −: a reduction in activity; +: an improvement between 1.2 and 2-fold; ++: an improvement between 2 and 5-fold; +++: an improvement greater than 5-fold; settings: improvement relative to wild-type Tgase (SEQ ID NO: 2); total product after 24 h
Protocol: (§1) Enzymatic “productivity” is a measure of product formation or substrate disappearance over time, at a prescribed temperature under specified reaction conditions. It is the measure both the durability and reaction yield of the enzyme variant. In this instance, productivity is defined as total product formed over 24-hours at a constant substrate concentration when the enzyme is the rate limiting factor. The time is defined as 24 hours, which represents approaching or surpassing burnout, denaturation, or self-reaction of the enzyme variant. In other words, variants with higher productivity deliver a higher product yield in 24-hours than variants with lower productivity produce in the same period of time. “Rate” refers to the initial rate for an enzymatic reaction, at a prescribed temperature under specified reaction conditions. The enzyme produces product at an initial rate that is approximately linear for a short period after the start of the reaction. When concentrations of enzyme and substrate are the same across the sample set, initial rates between enzyme variants can be compared. In this instance, the linear range for production of product occurs in one hour. Enzyme variants with faster initial rates deliver a higher product yield in one hour than variants with slower initial rates produce at the same time-period. In some cases, improvements to initial rates also deliver a more productive variant. In some cases, improvements to initial rates result in faster decay of the enzyme variant reducing overall enzymatic productivity. Productivity and rate may be assessed as described in Example 2.
(§2) Table 6 depicts variants of Streptomyces mobaraensis Tgase and improvement to productivity and/or rate relative to wild-type Tgase (SEQ ID NO. 2) as determined in Example 3. Numbering of amino acid positions is in reference to the mature S. mobaraensis Tgase sequence depicted in SEQ ID NO. 2. A “−” indicates a reduction in activity. A “+” indicates an improvement between 1.2 and 2-fold. A “++” indicates an improvement between 2 and 5-fold. A “+++” indicates an improvement greater than 5-fold.
To evaluate productivity, total product formed was measured after 24-hours of incubation, using the assay described in Example 4B. The time is defined as 24 hours which represents approaching or surpassing burnout, denaturation, or self-reaction of the enzyme variant.
(§3) Protein functionalization by Tgase variants was determined by the fluorogenic labeling of casein using monodansylcadaverine (e.g., a commercially available kit such as the Transglutaminase Fluorogenic Activity Assay Kit, T036, Zedira, Germany). Tgase activity was monitored by measuring fluorescence (excitation wavelength 332 nm; emission wavelength 500 nm) using a BioTek Synergy H1 microplate reader. Transglutaminase-catalyzed covalent coupling (crosslinking) of monodansylcadaverine with N,N-dimethylcasein produces a product that causes a shift in intensity and wavelength of fluorescence of the dansyl group now linked to the casein. The relative transglutaminase activity is shown by increase of fluorescence intensity over time. Enzyme variant loading was optimized based on expression levels, ensuring enzyme was the rate limiting factor. Briefly, cell-free reactions (set up as described in Example 2A) were first diluted 10-fold using phosphate buffer, pH 7.4, and a 5 microliter aliquot was analyzed.

[2] = test system: N,N-dimethylcasein; assay: Rate of product formation over 60 minutes (protein functionalization assay); type: biochemical; parameters: key: −: a reduction in activity; +: an improvement between 1.2 and 2-fold; ++: an improvement between 2 and 5-fold; +++: an improvement greater than 5-fold; settings: improvement relative to wild-type Tgase (SEQ ID NO: 2); initial rate over 60 min
Protocol: as §1, §2
Rate was assessed by measuring the rate of product formation over 60 minutes of incubation using a kinetic method to take scans every 60 seconds to determine product formation, using reaction conditions as described in Example 4B. The enzyme produces product at an initial rate that is approximately linear for the first one hour of the reaction. The concentrations of enzyme and substrate are the same across the sample set for each enzyme variant. Enzyme variants with faster initial rates deliver a higher product yield in one hour than variants with slower initial rates produce at the same time-period.
as §3

Molecule	Productivity [1]	Rate [2]
A13: Tgase variant S2P Q50S Q51E Q74A K91H Q124L K151R K152R F170I N282M G283A H289I S299V relative to SEQ ID NO: 2 (protein, UniProt P81453 77-407, looked up, variant S2P Q50S Q51E Q74A K91H Q124L K151R K152R F170I N282M G283A H289I S299V) Protein-glutamine …: DPDDRVTPPAEPLDRMPDPYRPSYGRAETVVNNYIRKWQQVYSHRDGRKSEMTEEQREWLSYGCVGVTWVNSGAYPTNRLAFASFDEDRFHNELKNGRPRSGETRAEFEGRVAKESFDEEKGFLRAREVASVMNRALENAHDESAYLDNLRRELANGNDALRNEDARSPIYSALRNTPSFKERNGGNHDPSRMKAVIYSKHFWSGQDRSSSADKRKYGDPDAFRPAPGTGLVDMSRDRNIPRSPTSPGEGFVNFDYGWFGAQTEADADKTVWTHGNHYHAPMASLGAMIVYESKFRNWVEGYSDFDRGAYVITFIPKSWNTAPDKVKQGWP	+ (an improvement between 1.2 and 2-fold)	+ (an improvement between 1.2 and 2-fold)
A16: Tgase variant S2P D18T Q50S Q74A K91H Q124L S131R V132L K151R K152R N282M G283A relative to SEQ ID NO: 2 (protein, UniProt P81453 77-407, looked up, variant S2P D18T Q50S Q74A K91H Q124L S131R V132L K151R K152R N282M G283A) Protein-glutamine …: DPDDRVTPPAEPLDRMPTPYRPSYGRAETVVNNYIRKWQQVYSHRDGRKSQMTEEQREWLSYGCVGVTWVNSGAYPTNRLAFASFDEDRFHNELKNGRPRSGETRAEFEGRVAKESFDEEKGFLRAREVARLMNRALENAHDESAYLDNLRRELANGNDALRNEDARSPFYSALRNTPSFKERNGGNHDPSRMKAVIYSKHFWSGQDRSSSADKRKYGDPDAFRPAPGTGLVDMSRDRNIPRSPTSPGEGFVNFDYGWFGAQTEADADKTVWTHGNHYHAPMASLGAMHVYESKFRNWSEGYSDFDRGAYVITFIPKSWNTAPDKVKQGWP	−	++ (an improvement between 2 and 5-fold)
A14: Tgase variant S2P Q50S Q51E Q74A K91H Q124L Y146F K151R K152R N282M G283A H289I S299V relative to SEQ ID NO: 2 (protein, UniProt P81453 77-407, looked up, variant S2P Q50S Q51E Q74A K91H Q124L Y146F K151R K152R N282M G283A H289I S299V) Protein-glutamine …: DPDDRVTPPAEPLDRMPDPYRPSYGRAETVVNNYIRKWQQVYSHRDGRKSEMTEEQREWLSYGCVGVTWVNSGAYPTNRLAFASFDEDRFHNELKNGRPRSGETRAEFEGRVAKESFDEEKGFLRAREVASVMNRALENAHDESAFLDNLRRELANGNDALRNEDARSPFYSALRNTPSFKERNGGNHDPSRMKAVIYSKHFWSGQDRSSSADKRKYGDPDAFRPAPGTGLVDMSRDRNIPRSPTSPGEGFVNFDYGWFGAQTEADADKTVWTHGNHYHAPMASLGAMIVYESKFRNWVEGYSDFDRGAYVITFIPKSWNTAPDKVKQGWP	+ (an improvement between 1.2 and 2-fold)	−
A18: Tgase variant S2P Q50S Q51A Q74A K91H Q124L K151R K152R N282M G283A H289I relative to SEQ ID NO: 2 (protein, UniProt P81453 77-407, looked up, variant S2P Q50S Q51A Q74A K91H Q124L K151R K152R N282M G283A H289I) Protein-glutamine …: DPDDRVTPPAEPLDRMPDPYRPSYGRAETVVNNYIRKWQQVYSHRDGRKSAMTEEQREWLSYGCVGVTWVNSGAYPTNRLAFASFDEDRFHNELKNGRPRSGETRAEFEGRVAKESFDEEKGFLRAREVASVMNRALENAHDESAYLDNLRRELANGNDALRNEDARSPFYSALRNTPSFKERNGGNHDPSRMKAVIYSKHFWSGQDRSSSADKRKYGDPDAFRPAPGTGLVDMSRDRNIPRSPTSPGEGFVNFDYGWFGAQTEADADKTVWTHGNHYHAPMASLGAMIVYESKFRNWSEGYSDFDRGAYVITFIPKSWNTAPDKVKQGWP	−	+ (an improvement between 1.2 and 2-fold)
A1: Tgase variant S2P Q50S Q74A K91H Q124L K151R K152R N282R relative to SEQ ID NO: 2 (protein, UniProt P81453 77-407, looked up, variant S2P Q50S Q74A K91H Q124L K151R K152R N282R) Protein-glutamine …: DPDDRVTPPAEPLDRMPDPYRPSYGRAETVVNNYIRKWQQVYSHRDGRKSQMTEEQREWLSYGCVGVTWVNSGAYPTNRLAFASFDEDRFHNELKNGRPRSGETRAEFEGRVAKESFDEEKGFLRAREVASVMNRALENAHDESAYLDNLRRELANGNDALRNEDARSPFYSALRNTPSFKERNGGNHDPSRMKAVIYSKHFWSGQDRSSSADKRKYGDPDAFRPAPGTGLVDMSRDRNIPRSPTSPGEGFVNFDYGWFGAQTEADADKTVWTHGNHYHAPRGSLGAMHVYESKFRNWSEGYSDFDRGAYVITFIPKSWNTAPDKVKQGWP	+ (an improvement between 1.2 and 2-fold)	−
A2: Tgase variant S2P Q50S Q74A K91H Q124L K151R K152R N282E S284A relative to SEQ ID NO: 2 (protein, UniProt P81453 77-407, looked up, variant S2P Q50S Q74A K91H Q124L K151R K152R N282E S284A) Protein-glutamine …: DPDDRVTPPAEPLDRMPDPYRPSYGRAETVVNNYIRKWQQVYSHRDGRKSQMTEEQREWLSYGCVGVTWVNSGAYPTNRLAFASFDEDRFHNELKNGRPRSGETRAEFEGRVAKESFDEEKGFLRAREVASVMNRALENAHDESAYLDNLRRELANGNDALRNEDARSPFYSALRNTPSFKERNGGNHDPSRMKAVIYSKHFWSGQDRSSSADKRKYGDPDAFRPAPGTGLVDMSRDRNIPRSPTSPGEGFVNFDYGWFGAQTEADADKTVWTHGNHYHAPEGALGAMHVYESKFRNWSEGYSDFDRGAYVITFIPKSWNTAPDKVKQGWP	−	+ (an improvement between 1.2 and 2-fold)
A17: Tgase variant S2P D14N Q50S Q74A K91H Q124L K151R K152R N282M G283A relative to SEQ ID NO: 2 (protein, UniProt P81453 77-407, looked up, variant S2P D14N Q50S Q74A K91H Q124L K151R K152R N282M G283A) Protein-glutamine …: DPDDRVTPPAEPLNRMPDPYRPSYGRAETVVNNYIRKWQQVYSHRDGRKSQMTEEQREWLSYGCVGVTWVNSGAYPTNRLAFASFDEDRFHNELKNGRPRSGETRAEFEGRVAKESFDEEKGFLRAREVASVMNRALENAHDESAYLDNLRRELANGNDALRNEDARSPFYSALRNTPSFKERNGGNHDPSRMKAVIYSKHFWSGQDRSSSADKRKYGDPDAFRPAPGTGLVDMSRDRNIPRSPTSPGEGFVNFDYGWFGAQTEADADKTVWTHGNHYHAPMASLGAMHVYESKFRNWSEGYSDFDRGAYVITFIPKSWNTAPDKVKQGWP	−	+ (an improvement between 1.2 and 2-fold)
A15: Tgase variant S2P Q50S Q74A K91H K95E Q124L K151R K152R N282M G283A relative to SEQ ID NO: 2 (protein, UniProt P81453 77-407, looked up, variant S2P Q50S Q74A K91H K95E Q124L K151R K152R N282M G283A) Protein-glutamine …: DPDDRVTPPAEPLDRMPDPYRPSYGRAETVVNNYIRKWQQVYSHRDGRKSQMTEEQREWLSYGCVGVTWVNSGAYPTNRLAFASFDEDRFHNELENGRPRSGETRAEFEGRVAKESFDEEKGFLRAREVASVMNRALENAHDESAYLDNLRRELANGNDALRNEDARSPFYSALRNTPSFKERNGGNHDPSRMKAVIYSKHFWSGQDRSSSADKRKYGDPDAFRPAPGTGLVDMSRDRNIPRSPTSPGEGFVNFDYGWFGAQTEADADKTVWTHGNHYHAPMASLGAMHVYESKFRNWSEGYSDFDRGAYVITFIPKSWNTAPDKVKQGWP	−	+ (an improvement between 1.2 and 2-fold)
